Experimental data taken from publication PMC3781837.

Target: WhiA (Streptomyces venezuelae) (UniProt F2RGQ4)
Assay: DNase I footprinting
Conditions: DNase I footprinting per Sure Track kit (Amersham); buffer, salt, pH and temperature not given in the material

UniProt F2RGQ4, sequence (F2RGQ4 whole entry): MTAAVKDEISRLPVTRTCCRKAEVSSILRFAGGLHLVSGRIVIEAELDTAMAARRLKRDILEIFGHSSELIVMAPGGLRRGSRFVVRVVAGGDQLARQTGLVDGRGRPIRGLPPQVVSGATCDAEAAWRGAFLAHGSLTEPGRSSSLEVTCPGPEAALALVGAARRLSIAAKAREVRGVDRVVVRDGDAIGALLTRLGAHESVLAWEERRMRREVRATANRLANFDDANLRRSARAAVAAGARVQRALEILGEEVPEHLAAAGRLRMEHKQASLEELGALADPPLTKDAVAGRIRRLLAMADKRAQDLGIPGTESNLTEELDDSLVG

| Sequence | binding |
| --- | --- |
| GCGCCGCAGCCCGGAGAAACCGAGGGCTTCTCCCCGCAGCGTCATTTGGAGGTTTTGGGACGACACGCCCCTAAACTCGCCCTGGACGTGGTGCTGGCCGACGAGGCCGCCGTGCCCGACCGCGAGTCCCTCGCCGACGCCGCCAAGCGGCTCGGTGCCGC (double strand) [whiAp2 promoter probe] | binds |
| GCTGCTCCACTCCACCAACGTAGGTCGGGAAGGGGCGGGAACCGGGTCCGGGACACGCCCTTTGGGTGACCTTGCCCCCGAGAACGACCGAAGGTCGGCGTCG (double strand) [sven4724-sven4725 intergenic probe] | binds |
| AGCATCCGGTGCACCCTCCCAGTGTCGCACCCGAAGGTGTCGAATCCCGGGAGTGGGCCCGCCGCGACACGCGGAGGGCCCGGAATCGCCTTTAACCCAAGATCTAGTGGTTGGATGGCATCGG (double strand) [nrdR promoter probe] | binds |
| GGCGGTACGGGAGCGGCCGACGCAGACTGGGAGGAGCGCCCTCTTTCCCGGAGTGCTGGAGGAACCACGGTATGACCGACCTCGCCATCGAGACCGAGGGCCTGGTCAAGGTCTTCGGCAGCAACCGCGCCGTCGACGGGATCGACCTCCGCGTCCCCGCCGGAATCGTCTACGGAGTCCTTGGCCCCAACGGCGC (double strand) [sven3535 promoter probe] | no binding |
| CCGGAATTCCCACTCAAAAGGCTGGACATTCTCCAGATCAAACGGGCATACGCTCGATGACACGCCGCTTCGGCCCCTAGGATTCCCTCTAACACCTCACCGGTCTCATTCGACAGGAAACCCATGAGCGACACATCCTCCCCCTTCGGCTTCGAGCTCGTGCGGCGCGGTTAGGATCCGCG (double strand) [filP promoter probe] | binds |
| GACGTGCCGCGCATCCGGGCGGCCACGGACCTGGGCAACGTCCCGATGGCCGCGGCGTTCGCCCGGGCGGGTTACGACGCCTTCGAGCACGCGATCAACTACGTGTGGGACGCGCCGGGCGTGGCGGGTCCCTGACTGCCAGGATGGGGGCGTAGGTCCGTCGACGAGGGGATTTGGCGTGCTCTTCGAGGTGTGGGC (double strand) [treZ promoter probe] | binds |
| GAACTGGTGGAGAAGTCGGCGAAGCGCTTGCGCGGGGCCGTCCTGATCGGTGCCGACCGCGCCCTGATCCGCGAAGCCCTGGCGCGACACGCCCCGGAGGTACCGGTGGTGGACCTCGACCGGACCGACACTGGGGCGATGTCCGAGGCGGTC (double strand) [ftsW promoter probe] | binds |
| GTCTCGCGCATGTGAGGGGCGGTGCCGCGCGGGGCACCGGGCCCGGCGGGCCCGGGCCGCACCGACGCGCCGGAATGATCGCTAAGAGGAAATTGTCCGATTAGCGCGTATCGTCGGCCCATGCCCACGCCATACGGATCCCGCGGCGGCATGGCGTTCAGCGCGGACGAGCTGCGTGTGCTCCGCCGTGCCCTCGCCATC (double strand) [sven3229 promoter probe] | no binding |
| GACATACCCACTCGGACTACTCCAGTCGACACGCCGAGGGTTTGCCCCTTTTGTAGGGATATCGACCCGTTCGACGACAGCTGGAGGCACCGTGCGGCCGGGAGGCTACGACTACGACAC (double strand) [cslA promoter probe] | binds |
